Data published in FireProtDB (doi:10.1110/ps.5101).

B1: Cytochrome c-551, P00099 (parent)
chain: MKPYALLSLLATGTLLAQGAWAEDPEVLFKNKGCVACHAIDTKMVGPAYKDVAAKFAGQAGAEAELAQRIKNGSQGVWGPIPMPPNAVSDDEAQTLAKWVLSQK

Variants of: B1
Conditions: Pseudomonas aeruginosa (strain ATCC 15692 / DSM 22644 / CIP 104116 / JCM 14847 / LMG 12228 / 1C / PRS 101 / PAO1); pH 7; 10 °C; GdnHCl; Fluorescence; sodium phosphate 50 mM; reversible: yes; structure 451C; whole UniProt chain shown

Variant	ddG of mutation (higher = less stable) [kcal/mol]	denaturant m value [kcal/mol/M]	denaturant midpoint (higher = more stable) [M]	unfolding free energy [kcal/mol]
MKPYALLSLLATGTLLAQGAWAEDPEVLFKNKGCVACHAIDTKMVGPAYKDVAAKFAGQAGAEAELAQRIKNGSQGVWGPIPMPPNAVSDDQAQTLAKWVLSQK	-0.2	3.4	1.8	6.3
MKPYALLSLLATGTLLAQGAWAEDPEVLFKNKGCVACHAIDTKMVGPAYKDVAAKFAGQAGAEAELAQRIKNGSQGVWGPIPMPPNAVSDDVAQTLAKWVLSQK	0.3	3.3	1.8	5.8
